According to PMC13031558, “An intrinsically disordered region mediates RNA-binding selectivity and cellular activities of LARP6”:

T1: LARP6 La-module (Homo sapiens, UniProt Q9BRS8 70-300)
T1 sequence: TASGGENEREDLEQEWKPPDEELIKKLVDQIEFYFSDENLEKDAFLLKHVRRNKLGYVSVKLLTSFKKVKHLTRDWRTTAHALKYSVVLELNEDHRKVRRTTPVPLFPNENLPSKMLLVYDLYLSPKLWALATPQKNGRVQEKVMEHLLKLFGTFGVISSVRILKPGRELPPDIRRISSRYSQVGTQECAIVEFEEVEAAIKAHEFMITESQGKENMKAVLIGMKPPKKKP

T2: LARP6 NTR (Homo sapiens, UniProt Q9BRS8 2-83)
T2 sequence: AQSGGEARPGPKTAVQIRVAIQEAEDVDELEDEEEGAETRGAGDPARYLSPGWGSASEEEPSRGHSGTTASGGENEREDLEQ

T3: LARP6 NTD (Homo sapiens, UniProt Q9BRS8 2-300)
T3 sequence: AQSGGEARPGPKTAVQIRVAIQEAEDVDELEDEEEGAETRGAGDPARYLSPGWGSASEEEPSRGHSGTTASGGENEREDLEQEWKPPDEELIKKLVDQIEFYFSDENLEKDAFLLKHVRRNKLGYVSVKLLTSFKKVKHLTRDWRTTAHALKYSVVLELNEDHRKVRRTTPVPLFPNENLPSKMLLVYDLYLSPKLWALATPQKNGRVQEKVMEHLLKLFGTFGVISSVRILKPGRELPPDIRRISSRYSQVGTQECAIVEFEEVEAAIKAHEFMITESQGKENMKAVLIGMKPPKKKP

B1: CTNNA1 P1 (5' 6-FAM) (ssRNA)
RNA: CUAAAUACAACACUGAUACUAGAUU
B2: CTNNA1 U2 (ssRNA)
RNA: CCCUCGGGGCUCCUGAAUAUCAGUC
B3: CTNNA1 D2 (ssRNA)
RNA: GUUUAAGUUGAUUAAAAAUGCUUUU
B4: CTNNA1 P2 (ssRNA)
RNA: GGAAAUGGGCAGACUGAACCAGUCC
B5: CTNNA1 U1 (ssRNA)
RNA: ACUGUUCGUCACUCAAAUGAAUUUG
B6: CTNNA1 P1 (5' biotin) (ssRNA)
RNA: CUAAAUACAACACUGAUACUAGAUU
B7: CTNNA1 P1 (ssRNA)
RNA: CUAAAUACAACACUGAUACUAGAUU
B8: CTNNA1 D1 (ssRNA)
RNA: AGGUGGUGAAUUUUCCAAGAACAUA

Tests used:
LARP6 La-module [1] = biological target: T1, LARP6 La-module; assay: MST; BLI: 20 mM Tris-HCl pH 7.5, 100 mM KCl, 0.5 mM MgCl2, 1 mM TCEP, 0.05% Tween-20, 25 °C; MST, NMR and SAXS buffers not in the material; conditions: protein: recombinant; tags: His tag cleaved by TEV; label: 5' 6-FAM; single strand
LARP6 NTR [2] = biological target: T2, LARP6 NTR; assay: as above; conditions: protein: recombinant; tags: 6xHis-SUMO-TEV tag, cleaved; label: 5' 6-FAM; single strand
LARP6 NTD [3] = biological target: T3, LARP6 NTD; assay: as above; conditions: protein: recombinant; tags: 6xHis-SUMO-TEV tag, cleaved; label: 5' 6-FAM; single strand
LARP6 La-module [4] = biological target: T1, LARP6 La-module; assay: BLI; Mg; 20 mM Tris-HCl pH 7.5, 100 mM KCl, 0.5 mM MgCl2, 1 mM TCEP, 0.05% Tween-20, 25 C; steady state, 1:1 fit; conditions: label: 5' biotin
LARP6 NTD [5] = biological target: T3, LARP6 NTD; assay: as above; conditions: label: 5' biotin
LARP6 La-module [6] = biological target: T1, LARP6 La-module; assay: BLI; 0.5 mM Mg2+; BLI: 20 mM Tris-HCl pH 7.5, 100 mM KCl, 0.5 mM MgCl2, 1 mM TCEP, 0.05% Tween-20, 25 °C; MST, NMR and SAXS buffers not in the material; conditions: protein: recombinant; tags: His tag cleaved by TEV; label: 5' biotin; single strand
LARP6 NTD [7] = biological target: T3, LARP6 NTD; assay: as above; conditions: protein: recombinant; tags: 6xHis-SUMO-TEV tag, cleaved; label: 5' biotin; single strand
LARP6 NTR [8] = biological target: T2, LARP6 NTR; assay: as above; conditions: protein: recombinant; tags: 6xHis-SUMO-TEV tag, cleaved; label: 5' biotin; single strand

Row | Binder | Kd (LARP6 La-module [1]) [nM] | Kd (LARP6 NTR [2]) [nM] | Kd (LARP6 NTD [3]) [nM] | Kd (LARP6 La-module [4]) [nM] | Kd (LARP6 NTD [5]) [nM] | Kd (LARP6 La-module [6]) [nM] | Kd (LARP6 NTD [7]) [nM] | Kd (LARP6 NTR [8]) [nM]
1 | B1 | 5.8 | 8300 | 99 | – | – | – | – | –
2 | B2 | – | – | – | 4.3 ± 0.1 | 180 ± 5 | 4.4 ± 0.1 | 183 ± 5 | –
3 | B3 | – | – | – | 6.9 ± 0.6 | 360 ± 57 | – | 367 ± 57 | –
4 | B4 | – | – | – | 0.9 ± 0.05 | 17 ± 1.2 | 0.91 ± 0.05 | – | –
5 | B5 | – | – | – | 14 ± 0.8 | – | – | 587 ± 29 | –
6 | B6 | – | – | – | – | – | 1.5 ± 0.4 | 61 ± 5 | 1200 ± 500
7 | B7 | – | – | – | 1.3 ± 0.4 | 58 ± 5 | – | – | –
8 | B8 | – | – | – | 2 ± 0.1 | 87 ± 4 | – | 85 ± 4 | –
